B1: Interleukin-27 subunit beta (Homo sapiens), Q14213 (parent)
chain: MTPQLLLALVLWASCPPCSGRKGPPAALTLPRVQCRASRYPIAVDCSWTLPPAPNSTSPVSFIATYRLGMAARGHSWPCLQQTPTSTSCTITDVQLFSMAPYVLNVTAVHPWGSSSSFVPFITEHIIKPDPPEGVRLSPLAERQLQVQWEPPGSWPFPEIFSLKYWIRYKRQGAARFHRVGPIEATSFILRAVRPRARYYVQVAAQDLTDYGELSDWSLPATATMSLGK
partner: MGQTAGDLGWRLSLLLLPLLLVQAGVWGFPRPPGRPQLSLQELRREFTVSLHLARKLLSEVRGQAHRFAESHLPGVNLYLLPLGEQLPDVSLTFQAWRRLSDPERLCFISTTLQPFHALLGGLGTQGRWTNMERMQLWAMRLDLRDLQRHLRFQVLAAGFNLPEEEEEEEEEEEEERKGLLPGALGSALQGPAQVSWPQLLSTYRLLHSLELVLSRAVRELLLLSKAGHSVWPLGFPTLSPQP
B2: Interleukin-27 subunit alpha (Homo sapiens), Q8NEV9 (parent)
chain: B1 partner
partner: B1 chain

Variants of: B1
Details: with il27a_human IL27, Q8NEV9

effect of a mutation on the interaction | Variant
decreasing interaction | MTPQLLLALVLWASCPPCSGRKGPPAALTLPRVQCRASRYPIAVDCSWTLPPAPNSTSPVSFIATYRLGMAARGHSWPCLQQTPTSTSCTITDVQLASMAPYVLNVTAVHPWGSSSSFVPFITEHIIKPDPPEGVRLSPLAERQLQVQWEPPGSWPFPEIFSLKYWIRYKRQGAARFHRVGPIEATSFILRAVRPRARYYVQVAAQDLTDYGELSDWSLPATATMSLGK [F97A]
decreasing interaction | MTPQLLLALVLWASCPPCSGRKGPPAALTLPRVQCRASRYPIAVDCSWTLPPAPNSTSPVSFIATYRLGMAARGHSWPCLQQTPTSTSCTITDVQLFSMAPYVLNVTAVHPWGSSSSFVPFITEHIIKPDPPEGVRLSPLAERQLQVQWEPPGSWPFPAIFSLKYWIRYKRQGAARFHRVGPIEATSFILRAVRPRARYYVQVAAQDLTDYGELSDWSLPATATMSLGK [E159A]
disrupting interaction | MTPQLLLALVLWASCPPCSGRKGPPAALTLPRVQCRASRYPIAVDCSWTLPPAPNSTSPVSFIATYRLGMAARGHSWPCLQQTPTSTSCTITDVQLFSMAPYVLNVTAVHPWGSSSSFVPFITEHIIKPDPPEGVRLSPLAERQLQVQWEPPGSWPFPEIFSLKYWIRYKRQGAARFHRVGPIEATSFILRAVRPRARYYVQVAAQDLTAYGELSDWSLPATATMSLGK [D210A]

Variants of: B2
Details: with il27b_human EBI3, Q14213

effect of a mutation on the interaction | Variant
disrupting interaction | MGQTAGDLGWRLSLLLLPLLLVQAGVWGFPRPPGRPQLSLQELRREFTVSLHLARKLLSEVRGQAHRFAESHLPGVNLYLLPLGEQLPDVSLTFQAARRLSDPERLCFISTTLQPFHALLGGLGTQGRWTNMERMQLWAMRLDLRDLQRHLRFQVLAAGFNLPEEEEEEEEEEEEERKGLLPGALGSALQGPAQVSWPQLLSTYRLLHSLELVLSRAVRELLLLSKAGHSVWPLGFPTLSPQP [W97A]
increasing interaction | MGQTAGDLGWRLSLLLLPLLLVQAGVWGFPRPPGRPQLSLQELRREFTVSLHLARKLLSEVRGQAHRFAESHLPGVNLYLLPLGEQLPDVSLTFQAWRRLSDPERLCFISTTLQPFHALLGGLGTQGRWTNMERMQLWAMRLDLRDLQRHLRFQVLAAGFNLPEEEEEEEEEEEEERKGLLPGALGSALQGPAQVSAPQLLSTYRLLHSLELVLSRAVRELLLLSKAGHSVWPLGFPTLSPQP [W197A]

From IntAct's records for PubMed 20974977
